Here are results for six molecules from paper PMC3384336 (Nucleic Acids Research, 2012).

B4: RNA polymerase I subunit A34.5 (natural protein)
chain: MSKLSKDYVSDSDSDDEVISNEFSIPDGFKKCKHLKNFPLNGDNKKKAKQQQVWLIKFPSNVDISKLKSLPVDFESSTTMTIDKHDYKIMDDTDIESSLTQDNLSNMTLLVPSESKESLKIASTAKDNAPLQFDKVFSVSETAKIPAIDYSKVRVPRKDVPKVEGLKLEHFATGYDAEDFHVAEEVKENKKEPKKRSHHDDEEESSEKKKKKKEKREKREKKDKKDKKKKHRD
B5: RNA polymerase I subunit A49 (natural protein)
chain: MSVKRSVSEIEIESVQDQPSVAVGSFFKGFRAPSDTTFDLYKKKKSEKDEFVLHGENERLEYEGYTDSSSQASNQYVVGLFNPEKKSIQLYKAPVLVSKVVSKSSKNLRGPKIKSKSDTRPSALRNALGEAFGTKKAKKAIADLERNRIDSDKLTDSAIDIVDSVRTASKDLPTRAQLDEITSNDRPTPLANIDATDVEQIYPIESIIPKKELQFIRVSSILKEADKEKKLELFPYQNNSKYVAKKLDSLTQPSQMTKLQLLYYLSLLLGVYENRRVNNKTKLLERLNSPPEILVDGILSRFTVIKPGQFGRSKDRSYFIDPQNEDKILCYILAIIMHLDNFIVEITPLAHELNLKPSKVVSLFRVLGAIVKGATVAQAEAFGIPKSTAASYKIATMKVPFKLPEMTRRGRGPRR

Common to all, as to test: cross-linking
Test [1] deals with RNA polymerase I subunit A190 (Saccharomyces cerevisiae, UniProt P10964 1-1664).
Sequence of RNA polymerase I subunit A190 (P10964 whole entry): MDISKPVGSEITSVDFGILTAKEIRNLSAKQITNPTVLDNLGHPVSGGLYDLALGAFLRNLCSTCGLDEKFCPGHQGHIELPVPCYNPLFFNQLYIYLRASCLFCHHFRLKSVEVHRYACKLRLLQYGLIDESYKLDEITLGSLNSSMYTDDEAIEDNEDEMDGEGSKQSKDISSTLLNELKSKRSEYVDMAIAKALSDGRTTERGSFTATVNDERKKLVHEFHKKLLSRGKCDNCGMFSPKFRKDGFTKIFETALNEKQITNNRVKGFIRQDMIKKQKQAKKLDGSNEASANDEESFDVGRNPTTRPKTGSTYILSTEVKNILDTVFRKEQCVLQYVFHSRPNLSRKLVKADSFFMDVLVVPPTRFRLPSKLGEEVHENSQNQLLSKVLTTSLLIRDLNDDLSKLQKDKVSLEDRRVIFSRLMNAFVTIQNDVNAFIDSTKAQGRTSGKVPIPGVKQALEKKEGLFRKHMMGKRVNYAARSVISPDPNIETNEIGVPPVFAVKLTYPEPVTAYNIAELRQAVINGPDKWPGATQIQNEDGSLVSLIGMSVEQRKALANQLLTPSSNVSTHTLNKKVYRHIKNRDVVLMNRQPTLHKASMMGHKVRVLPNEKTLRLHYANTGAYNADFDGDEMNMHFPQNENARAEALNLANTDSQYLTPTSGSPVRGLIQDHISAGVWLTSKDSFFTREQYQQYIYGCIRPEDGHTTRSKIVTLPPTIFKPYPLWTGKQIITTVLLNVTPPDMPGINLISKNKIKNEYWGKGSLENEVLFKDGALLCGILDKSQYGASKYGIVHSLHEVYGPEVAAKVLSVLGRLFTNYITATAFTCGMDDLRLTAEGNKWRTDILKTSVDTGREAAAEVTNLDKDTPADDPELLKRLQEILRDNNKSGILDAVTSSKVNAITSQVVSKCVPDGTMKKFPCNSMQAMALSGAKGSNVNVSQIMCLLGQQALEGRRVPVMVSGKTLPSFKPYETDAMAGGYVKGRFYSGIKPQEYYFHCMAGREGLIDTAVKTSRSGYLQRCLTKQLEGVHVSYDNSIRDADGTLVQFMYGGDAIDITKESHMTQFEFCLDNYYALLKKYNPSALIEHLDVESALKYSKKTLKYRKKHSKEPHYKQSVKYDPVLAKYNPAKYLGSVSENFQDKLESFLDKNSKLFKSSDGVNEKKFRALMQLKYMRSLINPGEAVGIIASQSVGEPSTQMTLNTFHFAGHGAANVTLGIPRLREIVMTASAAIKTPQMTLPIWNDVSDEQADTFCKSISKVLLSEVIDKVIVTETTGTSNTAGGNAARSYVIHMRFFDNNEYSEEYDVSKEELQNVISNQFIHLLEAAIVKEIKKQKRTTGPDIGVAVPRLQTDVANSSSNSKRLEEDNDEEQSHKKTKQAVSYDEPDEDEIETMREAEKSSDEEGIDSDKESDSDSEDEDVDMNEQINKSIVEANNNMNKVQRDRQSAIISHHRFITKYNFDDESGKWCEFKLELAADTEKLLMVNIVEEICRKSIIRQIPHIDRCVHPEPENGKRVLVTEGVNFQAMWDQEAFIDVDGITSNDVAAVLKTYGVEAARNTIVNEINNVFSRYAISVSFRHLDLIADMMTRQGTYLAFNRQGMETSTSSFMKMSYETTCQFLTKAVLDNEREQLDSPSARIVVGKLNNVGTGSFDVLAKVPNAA
Test [2] deals with T1, RNA polymerase I subunit A135 (Saccharomyces cerevisiae, UniProt P22138 1-1203).
T1 sequence: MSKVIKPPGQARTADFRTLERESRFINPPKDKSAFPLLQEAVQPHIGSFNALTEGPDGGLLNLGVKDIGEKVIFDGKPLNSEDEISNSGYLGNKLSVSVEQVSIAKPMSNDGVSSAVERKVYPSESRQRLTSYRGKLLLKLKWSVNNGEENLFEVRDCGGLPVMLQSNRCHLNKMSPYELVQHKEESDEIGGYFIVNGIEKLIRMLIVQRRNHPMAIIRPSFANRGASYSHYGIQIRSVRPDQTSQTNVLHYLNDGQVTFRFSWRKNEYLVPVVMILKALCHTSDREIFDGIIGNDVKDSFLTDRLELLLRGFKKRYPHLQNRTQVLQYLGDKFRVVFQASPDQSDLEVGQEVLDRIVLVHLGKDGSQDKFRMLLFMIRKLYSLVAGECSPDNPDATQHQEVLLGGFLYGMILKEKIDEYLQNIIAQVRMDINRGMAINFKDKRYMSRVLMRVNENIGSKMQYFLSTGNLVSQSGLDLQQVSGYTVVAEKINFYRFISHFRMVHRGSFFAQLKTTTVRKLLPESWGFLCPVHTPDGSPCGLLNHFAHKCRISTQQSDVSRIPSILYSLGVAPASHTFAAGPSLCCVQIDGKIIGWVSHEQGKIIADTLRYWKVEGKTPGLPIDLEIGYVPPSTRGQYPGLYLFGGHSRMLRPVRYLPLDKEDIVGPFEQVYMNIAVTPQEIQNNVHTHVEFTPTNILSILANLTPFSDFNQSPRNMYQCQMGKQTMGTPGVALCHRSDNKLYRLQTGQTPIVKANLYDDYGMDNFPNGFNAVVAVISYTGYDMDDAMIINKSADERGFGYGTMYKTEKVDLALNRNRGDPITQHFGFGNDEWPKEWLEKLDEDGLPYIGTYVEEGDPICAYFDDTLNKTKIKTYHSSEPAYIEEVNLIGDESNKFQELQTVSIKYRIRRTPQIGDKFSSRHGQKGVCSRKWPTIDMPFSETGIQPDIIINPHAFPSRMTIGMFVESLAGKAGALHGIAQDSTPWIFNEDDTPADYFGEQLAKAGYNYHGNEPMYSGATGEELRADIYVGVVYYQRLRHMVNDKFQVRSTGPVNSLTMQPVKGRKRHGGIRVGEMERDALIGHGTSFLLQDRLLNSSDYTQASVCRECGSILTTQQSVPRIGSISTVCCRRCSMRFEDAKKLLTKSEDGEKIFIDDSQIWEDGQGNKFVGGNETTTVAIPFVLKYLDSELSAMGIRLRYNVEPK

In test [3] the target is B4.
Test [4] concerns the target B5.
Test [5] deals with T2, RNA polymerase I subunit AC40 (Saccharomyces cerevisiae, UniProt P07703 1-335).
T2 sequence: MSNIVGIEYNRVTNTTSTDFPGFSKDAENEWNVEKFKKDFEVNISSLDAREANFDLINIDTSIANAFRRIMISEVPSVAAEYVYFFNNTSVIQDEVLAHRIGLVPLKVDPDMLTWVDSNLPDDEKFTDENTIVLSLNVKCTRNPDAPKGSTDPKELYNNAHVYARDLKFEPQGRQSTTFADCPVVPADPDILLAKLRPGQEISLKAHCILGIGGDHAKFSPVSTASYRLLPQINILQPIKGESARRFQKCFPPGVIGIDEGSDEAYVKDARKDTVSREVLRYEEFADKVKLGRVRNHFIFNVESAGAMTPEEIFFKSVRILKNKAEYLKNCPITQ

B1: RNA polymerase I subunit A12.2 (natural protein)
chain: MSVVGSLIFCLDCGDLLENPNAVLGSNVECSQCKAIYPKSQFSNLKVVTTTADDAFPSSLRAKKSVVKTSLKKNELKDGATIKEKCPQCGNEEMNYHTLQLRSADEGATVFYTCTSCGYKFRTNN
In the case of B1, the binding result in test [1] and in test [2] was “binds” each time.

B2: RNA polymerase I subunit AC19 (natural protein)
chain: MTEDIEQKKTATEVTPQEPKHIQEEEEQDVDMTGDEEQEEEPDREKIKLLTQATSEDGTSASFQIVEEDHTLGNALRYVIMKNPDVEFCGYSIPHPSENLLNIRIQTYGETTAVDALQKGLKDLMDLCDVVESKFTEKIKSM
With B2, the binding result in test [3] is on record as “binds”.

B3: RNA polymerase subunit Rpb5 (natural protein)
chain: MDQENERNISRLWRAFRTVKEMVKDRGYFITQEEVELPLEDFKAKYCDSMGRPQRKMMSFQANPTEESISKFPDMGSLWVEFCDEPSVGVKTMKTFVIHIQEKNFQTGIFVYQNNITPSAMKLVPSIPPATIETFNEAALVVNITHHELVPKHIRLSSDEKRELLKRYRLKESQLPRIQRADPVALYLGLKRGEVVKIIRKSETSGRYASYRICM
As to B3, the binding result in test [4] was “binds”.
Consider B4, for which the binding result in test [4], in test [2] and in test [5] was “binds” each time.
As to B5, the binding result in test [1] and in test [2] was “binds” throughout.

B6: RNA polymerase I subunit A43 (natural protein)
chain: MSQVKRANENRETARFIKKHKKQVTNPIDEKNGTSNCIVRVPIALYVSLAPMYLENPLQGVMKQHLNPLVMKYNNKVGGVVLGYEGLKILDADPLSKEDTSEKLIKITPDTPFGFTWCHVNLYVWQPQVGDVLEGYIFIQSASHIGLLIHDAFNASIKKNNIPVDWTFVHNDVEEDADVINTDENNGNNNNEDNKDSNGGSNSLGKFSFGNRSLGHWVDSNGEPIDGKLRFTVRNVHTTGRVVSVDGTLISDADEEGNGYNSSRSQAESLPIVSNKKIVFDDEVSIENKESHKELDLPEVKEDNGSEIVYEENTSESNDGESSDSD
For the molecule B6, in test [4], the binding result is recorded as “binds”.
